Assay results taken from CN104862283A (UNIV JINAN, dated 2015).

T1: 人肌红蛋白(Human Myoglobin) (human, UniProt P02144 2-154)
T1 construct: mature; Native protein, bought; also called 人肌红蛋白标准抗原; ABCam ab77876
T1 sequence (looked up): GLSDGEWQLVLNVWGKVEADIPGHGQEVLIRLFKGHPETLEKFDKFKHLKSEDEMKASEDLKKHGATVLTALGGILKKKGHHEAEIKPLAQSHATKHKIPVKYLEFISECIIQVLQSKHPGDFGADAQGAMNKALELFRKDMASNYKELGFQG


Target: T1, 人肌红蛋白(Human Myoglobin)
Assay: indirect ELISA, human myoglobin coated at 300 ng/ml, purified antibody in two-fold dilutions from 1:10 000

效价 (titer, antibody dilution at OD450 about 1.0) [dilution fold] | 效价 (titer, antibody dilution at OD450 about 1.0) (dilution fold) | Binder
≥ 1e+06 | – | 鼠源抗人肌红蛋白单克隆抗体5M7 (antibody) chain 1: VQLQESGAELARPGASVKLSCKASGYTFTIYWMQWVKQRPGQGLEWIGSIYPGDGDTRYNQKFKGKATFTADKSSSTAYMQLISLASEDSAVYYCATGLYYGYDEGHWYFDVWGQGTTV chain 2: DIVMSQSPASLAVSLGQRATISYRASKSVSTSGYSYMHWNQQKPGQPPRLLIYLVSNLESGVPARFSGSGSGTDFTLNIHPVEEEDAATYYCQHIR
– | > 1e+06 | 鼠源抗人肌红蛋白单克隆抗体3M4 (antibody, V domains shown) VH: VKLQESGGGLVQPGGSMKLSCVASGFNFSSYWMSWVRQSPEKGLEWVAEIRLKSDNYATHYAESVKGKFTISRDDSKSSLYLQMNNLRTEDTGIYFCADHGLTGHWGQGTTVTVSS VL: LTQSPAIMSASPGEKVTLTCSASSSVSSSYLYWYQQKPGSSPKIWIYSTSNLAFGVPDRFSGSGSGTSYSLTISTMEAEDAASYFCHQWSSYPFTFGAGTKLE
